B1: Serine/threonine-protein kinase cds1 (Schizosaccharomyces pombe (strain ATCC 38366 / 972)), Q09170 (parent)
chain: MEEPEEATQATQEAPLHVSQNIAKQVVNNENVFMKLVMTRMLDGKTEVIPLTTDVHNGFWRFGRHKSCEVVLNGPRVSNFHFEIYQGHRNDSDESENVVFLHDHSSNGTFLNFERLAKNSRTILSNGDEIRIGLGVPKDEISFLCQVPVKHSRDSQKNMIKSENSHYEIIRTLGSGTFAVVKLAVEVNSGKWYAIKIINKRKILLTSSEKRATEMFQREIDILKSLHHPGVVQCHEIFENDDELFIVMEYVEGGDLMDFLIANGSIDEQDCKPLLKQLLETLLHLHKQGVTHRDIKPENILITNDFHLKISDFGLAKVIHGTGTFLETFCGTMGYLAPEVLKSKNVNLDGGYDDKVDIWSLGCVLYVMLTASIPFASSSQAKCIELISKGAYPIEPLLENEISEEGIDLINRMLEINPEKRISESEALQHPWFYTVSTHEHRTPPSSSEHEATEQLNSSS
partner: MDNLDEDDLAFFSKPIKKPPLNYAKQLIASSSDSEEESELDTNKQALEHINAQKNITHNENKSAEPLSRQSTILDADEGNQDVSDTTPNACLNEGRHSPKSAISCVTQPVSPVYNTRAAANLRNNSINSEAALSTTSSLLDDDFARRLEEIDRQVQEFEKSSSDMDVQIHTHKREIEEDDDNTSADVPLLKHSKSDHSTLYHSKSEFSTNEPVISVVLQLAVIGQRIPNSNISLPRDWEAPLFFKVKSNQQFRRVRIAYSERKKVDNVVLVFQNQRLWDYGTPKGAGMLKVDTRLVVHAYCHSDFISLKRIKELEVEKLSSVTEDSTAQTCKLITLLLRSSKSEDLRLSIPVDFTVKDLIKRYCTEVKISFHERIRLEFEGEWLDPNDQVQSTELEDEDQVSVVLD
B2: DNA repair protein rad60 (Schizosaccharomyces pombe (strain ATCC 38366 / 972)), Q9USX3 (parent)
chain: B1 partner
partner: B1 chain

Variants of: B1
Conditions: with rad60_schpo rad60, Q9USX3

Row | effect of a mutation on the interaction | Variant
1 | disrupting interaction | S78A;H81A

Variants of: B2
Conditions: with rad53_schpo cds1, Q09170

Row | effect of a mutation on the interaction | Variant
2 | disrupting interaction | T72A;I232S;Q250R;K312N

— IntAct's records for PubMed 12897162
